Results reported in patent US20050261179.

Tests used:
[1] = molecular target: T1, adrenomedullin (synthetic human AM)
T1 chain: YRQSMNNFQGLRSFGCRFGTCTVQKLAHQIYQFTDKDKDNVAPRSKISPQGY

[2] = molecular target: T2, human complement factor H, P08603
T2 chain: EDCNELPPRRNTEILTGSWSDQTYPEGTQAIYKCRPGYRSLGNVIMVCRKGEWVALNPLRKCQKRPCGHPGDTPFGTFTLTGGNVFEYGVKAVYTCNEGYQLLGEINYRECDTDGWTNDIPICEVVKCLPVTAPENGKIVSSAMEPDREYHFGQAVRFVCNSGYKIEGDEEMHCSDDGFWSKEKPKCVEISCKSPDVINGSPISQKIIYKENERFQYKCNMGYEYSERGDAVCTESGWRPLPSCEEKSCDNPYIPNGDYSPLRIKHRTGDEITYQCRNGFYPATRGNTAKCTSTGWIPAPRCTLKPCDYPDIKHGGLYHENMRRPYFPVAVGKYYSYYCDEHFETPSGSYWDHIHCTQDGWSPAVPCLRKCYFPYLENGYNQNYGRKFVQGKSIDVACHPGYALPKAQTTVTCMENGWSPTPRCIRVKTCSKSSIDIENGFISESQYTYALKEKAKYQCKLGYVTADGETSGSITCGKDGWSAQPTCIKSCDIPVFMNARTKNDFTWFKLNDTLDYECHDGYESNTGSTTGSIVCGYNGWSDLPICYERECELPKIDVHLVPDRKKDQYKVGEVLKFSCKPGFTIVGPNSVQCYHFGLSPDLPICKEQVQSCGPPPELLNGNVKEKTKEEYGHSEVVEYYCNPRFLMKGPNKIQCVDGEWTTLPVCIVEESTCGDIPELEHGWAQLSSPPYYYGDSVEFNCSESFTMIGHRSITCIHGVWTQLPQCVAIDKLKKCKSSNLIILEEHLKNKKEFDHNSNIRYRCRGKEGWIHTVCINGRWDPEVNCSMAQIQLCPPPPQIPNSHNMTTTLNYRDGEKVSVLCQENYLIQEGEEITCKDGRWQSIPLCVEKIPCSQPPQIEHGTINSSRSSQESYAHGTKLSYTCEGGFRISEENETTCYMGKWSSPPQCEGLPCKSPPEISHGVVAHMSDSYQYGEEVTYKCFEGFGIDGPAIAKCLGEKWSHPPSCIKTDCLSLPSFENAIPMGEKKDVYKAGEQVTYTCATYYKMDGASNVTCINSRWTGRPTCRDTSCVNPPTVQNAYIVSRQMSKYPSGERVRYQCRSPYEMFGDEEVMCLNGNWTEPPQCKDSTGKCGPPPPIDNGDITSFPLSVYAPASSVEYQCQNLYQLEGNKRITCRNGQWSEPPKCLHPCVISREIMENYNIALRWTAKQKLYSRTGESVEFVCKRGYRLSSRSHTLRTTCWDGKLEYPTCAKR

B1: human recombinant MMP-2 (protein)
chain: YNFFPRKPKWDKNQITYRIIGYTPDLDPETVDDAFARAFQVWSDVTPLRFSRIHDGEADIMINFGRWEHGDGYPFDGKDGLLAHAFAPGTGVGGDSHFDDDELWTLGEGQVVRVKYGNADGEYCKFPFLFNGKEYNSCTDTGRSDGFLWCSTTYNFEKDGKYGFCPHEALFTMGGNAEGQPCKFPFRFQGTSYDSCTTEGRTDGYRWCGTTEDYDRDKKYGFCPETAMSTVGGNSEGAPCVFPFTFLGNKYESCTSAGRSDGKMWCATTANYDDDRKWGFCPDQGYSLFLVAAHEFGHAMGLEHSQDPGALMAPIYTYTKNFRLSQDDIKGIQELYGASPDIDLGTGPTPTLGPVTPEICKQDIVFDGIAQIRGEIFFFKDRFIWRTVTPRDKPMGPLLVATFWPELPEKIDAVYEAPQEEKAVFFAGNEYWIYSASTLERGYPKPLTSLGLPPDVQRVDAAFNWSKNKKTYIFAGDKFWRYNEVKKKMDPGFPKLIADAWNAIPDNLDAVVDLQGGGHSYFFKGAYYLKLENQSLKSVKFGSIKSDWLGC
[1]
  AM fragments generated by MMP-2 digestion (mass spectrometry of HPLC peaks): These include AM(8-52), AM(11-52), AM(23-52), AM(29-52), AM(11-28), and AM(11-22)
  degradation of synthetic AM (gel, HPLC, mass spectrometry): MMP-2 rapidly cleaves synthetic AM in a time-dependent manner
[2]
  degradation of factor H (gel): is not a substrate for either one of the MMPs
